From article PMC10734219, “Characterization of the Membrane-Associated Electron-Bifurcating Flavoenzyme EtfABCX from the Hyperthermophilic Bacterium Thermotoga maritima” (Biochemistry, 2023)
“And” between values parts separate entries of the source, which are not always exact repeats. Identical values can stand only once.

Biological target: the molecule itself
Test: SEC; purified recombinant EtfABCX analysed by size exclusion chromatography; peaks assigned by mass; EtfABCX protomers to superdimer and super-tetramer

B1: Thermotoga maritima EtfABCX holoenzyme (heterotetrameric protomer) (complex)
chain 1: MNVVVCIKQVPDTTNVRIDRKTNNLVREGVPSIINPDDERALELASQLKEKFGATVYVITMGPPQAKEALKDAIAFGLDEAVHLSDRTFAGADTLATTYTLYWGIKKIEERIGKIDLILTGKQAVDGDTGQVGPGLATRFGYALGAYVVRIEEIDPEKKEMVIVRRLDQGFEKIRLKLPAVLTITDELNKPRYADLPNLIRAIRYEPIVWTHKDLGLDPKKCGFFGSPTRVVSTNIPPARKGGDIISKNEDPEVAAEKLIEALKKFEAVRLVEALKPVLEGEKDE
chain 2: MSEKKIIFVLIEHHGGKAHPVSWELIGKARDLASKLENSEVWGVLLGEGLESVAKEAIQRGADKVLYVKNREFNTYVNYLYKKALVDMVRKYRPEIFLIGATLEGRELAGMVATELETGLTADCTGLDIIPDKKLLAMTRPTFGGNLMATIMCPDHRPQMATVRPGVMKELPPDPERTGEIIEEEYDLGTFDKLIEILETIPLQTQVNLEYAPVVVAGGKGVGGPEGFKKLKELADLLGGEVGASRAAVKAGWISPEHQVGQTGKTVRPVLYFACGISGAIQHVVGIKESEIIVAINIDEKAPIFDIADIGIVGDLHKVVPALTAKLRELLNKSGVKK
chain 3: MKIEFDVVVVGAGPSGLSCAYVLAKNGLKVAVVEKGEYPGSKNVMGGVLYVHPLKEIMPDFLEKAANSKALERNVIEQNLWLLGNEGVIKIGHRNVEWKENPNAFTVLRANFDRWFAQEVEKAGALIIPKTKVEDFLRNEKGEIAGVVTSRPKGEIHSKAVVIAEGVNPILTMKAGLRKEDLKPHMVAVAVKEVISVPEDVVNRVFGVEGNDGATIELLGSWSEGMFGMGFLYANRSSVSLGCGVLLEDLRKKKIKPYQLLENLKNHPVISDMLGEYRNNTMEYLAHLIPEGGYYAMPKVYGDRVLVCGDAAMLVNSIHREGSNHAITSGRLAAETLLEAFEKGDFSEKILKNYYLRLKESFILKDLEKYKDLMPTMEKNHQFVEIYPDLANDALKRFLQVDGTPKWDVQKQIADMVLSRRSLIGISLDLLRFWRAVR
chain 4: MRIEDKLYLNRYRTDEENPHLKIKDESICAEKCSDRPCVSCCPADVYEWTESGMEVKFEGCLECGTCRIVCPFGNIEWNYPRGNYGVLYKFG
  stoichiometry N: 2 and 4
